# Measurements: the nanobody polyreactivity screen of Harvey et al. (2022)
# Assay: yeast display, Sf9 membrane polyspecificity reagent, FACS + sequencing; frameworks hold sequencing errors
# Outline: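 Using colony PCR, genes from sorted yeast display clones were amplified, then sequenced on MiSeq at 2 × 250 and filtered by CDR length. The clones had been stained with 10% biotinylated, detergent-solubilized Sf9 membrane reagent for 1 hour at 4 °C and sorted by FACS into low and high (top ~1%) gates on anti-HA and streptavidin fluorescence. Polyreactivity labels come from the gate of origin.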
sequence,measurement,value
QVQLVESGGGLVQAGASLRLICDASGSIFPYNAMGWYRQAPGKERELVAVITSSGGSTYYADSVKGRFTISRDNAKNTVYLQLNSLKPEDTAVYYCAVLNHRVDSVLTRYYYWGQGTQVTVSS,polyreactivity (PSR sort gate),low polyreactivity
QVQLVESGGGLVQAGGSLRLSCAASGSIFTVYVIGGYRQAPGKEREFVAAITYSGGRTDYADSVKGRFTISRDNAKNTVYLQMNSLKPEDTAVYYCAKVRDVLWRFNYWGQGTQVTVSS,polyreactivity (PSR sort gate),high polyreactivity
QVQLVESGGGLVQAGGSLRLSCAASGIIFVSYDMGWYRQAPGKERELVAAINRGGRTYYADSVKGRFTISRDNAKNTVYLQMNSLKPEDTAVYYCAAQFHFRPFSWTYDYWGQGTQVTVSS,polyreactivity (PSR sort gate),high polyreactivity
QVQLVESGGGLVQAGGSLRLSCAASGRTFDLYAMGWYRQAPGKERELVAAITKGGGSTYYADSVKGRFTISRDNAKNTVYLQMNSLKPEDTAVYYCAARFYYPWLYLFDSWGQGTQVTVSS,polyreactivity (PSR sort gate),high polyreactivity
QVQLEESGGGLVQAGGSLRLSCAASGRIFVNYDMGSDRQAPGKERELVADISISGSTDYADSVKGRFTISRDNAKNTVYLQMNSLKPEDTAVYYCATSFYVSDYYVPYEMGYWGQGTQVTVSS,polyreactivity (PSR sort gate),low polyreactivity
QVQLVESGGGLVQAGGSLRLSCAASGSIYSINAMGWYRQAPGKERELVAAISWSGGSTYYADSVKGRFTISRDNAKNTVYLQMNSLKPEDTAVYYCNAEEDEYGELDYWGQGTQVTVSS,polyreactivity (PSR sort gate),low polyreactivity
QVQLVESGGGLVQAGGSLRLSFAASGITITYYAMGWYRQAPGKERELVAGITNGRSTYYADSVKGRFTISRDNAKNTVYLQMNSLKPEDTAVYYCAAYVWSHSVGHDYWGQGTQVTVSS,polyreactivity (PSR sort gate),low polyreactivity
QVQLVESGGGLVQAGGSLRLSCAASGGIFDRYAMGWYRQAPGKERELVAAITSGGSTNYADSVKGRFTISRDNAKNTVYLQMNSLKPEDNAVYYCAAVESSYEAWYTYYYWGQGTQVTVSS,polyreactivity (PSR sort gate),low polyreactivity
QVQVVQSGGGLVQAGGSLRLSCAASGSTFPGNAMGWNRQAPGKERELVASIRSSAASTYYADSVKGRFTISRDNAKNTVYLHMNSLKPEETAVYYWSVRSYRRFTNLSYRYDYWGQGTQVSVSS,polyreactivity (PSR sort gate),high polyreactivity
QVQLVESGGGLVQAGGSLRLSCAASGSTFFVYAMGWYRQAPGNESEFVAAISKSGGSTYYADSEKGRFTISRDNAKNTVYLQMNSLKPEDTAVYYCAKYSGVNSIVGNDYWGQGTQVTVSS,polyreactivity (PSR sort gate),high polyreactivity
QDQLVESGGGLVQAGGSLRLSCDASGFILETNAMGWYRQAPGKERELVASITSSGSTYYADSVKGRFTISRDNAKNTVYLQMNSLKREVTAVYYCAARRYRSRGRTYGWFRYDYWGQGTQVTVSS,polyreactivity (PSR sort gate),high polyreactivity
QVQLVESGGGLVQAGGSIRLSCAASGIIFDTYAMGWYRQAPGKERELVAVISASGGSTYYADSVKGRFTISRDNAKNTVYLQMNSLKPEDTAVYYCAARHSLYGYWGQGTQVTVSS,polyreactivity (PSR sort gate),high polyreactivity
QVQLVESGGGLVQAGGILRLSCAASGLIFYYYAMGWYRQAPGKERELVAAIRTNYADSVKGRFTISRDNAKNTVYLQMNSLKPEDTAVYYCAAESSHSPTSAFDYWGQGTQVTVSS,polyreactivity (PSR sort gate),low polyreactivity
QDQLVESGGGLVQAGGSLRLSCAASGRIFQANAMGWYRQAPGKERELVASISSGGSTNYADSVKGRFTISRDNAKNTVYLQMNRLKPEDTAVYYCAARHPSSAYWVGYYWYDYWGQGTQVTVSS,polyreactivity (PSR sort gate),low polyreactivity
QVQLEESGGGLVQAGGSLRLSCAASGRTFSRYAMGWYRQAPGKERELVAAIRGNSGNTYYADSVKGRFTISRDNAKNTVYLQMNSLKPEDTAVYYCAKPFNIWGQGTQVTVSS,polyreactivity (PSR sort gate),high polyreactivity
QDQLVESGGGLVQAGGSLRLSCAASGSIFGYNDMGWYRQAPGKERELVATITWGGGRTRYADSVKGRFTSSRDNAKNTVYLHMNSLKPEVTAVYYCAADVLRISTLLFRGPGFDSWGQGTQVTVSS,polyreactivity (PSR sort gate),low polyreactivity
QVQLVESGGGLVQAGGSLRLSCAASGRTFRFYAMGCYRQAPGKERELVAAINYGGGNTYYADSVKGRFTISRDNAKNTVYLQMNILKPEDTAVYYCAAQYYYRARWFPYDYWGQGTQVTVSS,polyreactivity (PSR sort gate),high polyreactivity
QVQLVESGGGLVQAGGSLRLSCAASGYIFANNAMGWYRQAPGKERELVAAISSSGGRTYYADSVKGRFTISRDNAKNTVYLQMNSLKPEDTAVYYCNKYGTALWRYYYWGQGTQVTVSS,polyreactivity (PSR sort gate),high polyreactivity
QVQLVESGGGLVQAGGSLRLSCAASGRIFTDYAMGWYRQAPGKEREFVAAINKSGGSTYYADSVKGRFTISRDNAKNTVYLQMNSLKPEDTAVYYCAKPHVIYPSYDYWGQGTQVTVSS,polyreactivity (PSR sort gate),low polyreactivity
QVQLVESGGCLVQAGGSLRLSCAASGSIFRYYVMGWYRQAPGKERELVAAISSRGGSTYYADSVKGRFTISRDNAKNTVYLQMNSLKPEDTAVYYCAAYRAYSTAVGMEYWGQGTQVTVSS,polyreactivity (PSR sort gate),high polyreactivity
QVQLVESGGGLVQAGGSLSLRCAASGRTVGSYAMVWYRQAPGKERELVAVINGDGSTYYADSVKGRFTISRDNAKNTVYFQMNSLKPVDTAVYYCNNVSFYLGTRRVSLKHYYWGQGTQVTLSS,polyreactivity (PSR sort gate),low polyreactivity
QVQLVESVVGLVQAGLSLRLSSAASGSIFSGYMGWYRHAPGKERELVATITSGGSTYADSVKGRFTISRDNAKNTVYLQMNSLKPEDTAVYYCAADVSFYTSKYDYWGLGTQVTVSS,polyreactivity (PSR sort gate),low polyreactivity
QGQLVESRGGLVQAGGSLRLSCAASGRTFYYYGMGWYIQAPGKERELVATINSGASTYYADSVKGRFTISRDNAKNTVYLQINSLKPEDTAVYYCDAAKENGKYDYWGQGTQVTVSS,polyreactivity (PSR sort gate),high polyreactivity
QVQLVESGGGLVQAGGSLRLSCAASGRIFSYYAMGWYRQAPGKERELVAAISWNGGSTYYADSVKGRFTISRDNAKNTVYLQMKSLKPEDTAVYYCAAESYFNNWRNRYDYCGQGTQVTVSS,polyreactivity (PSR sort gate),high polyreactivity
QVQLVESGGGLFHAGGSLRLSCAAYGSTFPYYTMGWYRQAPGKERELVAAITTRGGGTYYADSVKGRFTISRDNAKNTVYIQMKSLKPEDTAVYYCAAKTIYYTRGIRHYYWGQVTQVTVSS,polyreactivity (PSR sort gate),high polyreactivity
QVHLVESGGGLVQAGGSLRLSCAASGRILVRYAMGWYRQAPGKERELVAAISSSGSSTYYADSVKGRFTISRDNAKNTVYLQMNSLKPEDTAVYYCNKPDVTRGRDVYYWGQGTQVTVSS,polyreactivity (PSR sort gate),low polyreactivity
QVQLVDSGGGLVQAGGSLRLSCAASGLIFSDYAMGWYRPAPGKERELVAAIRSGGRTYYADSVKGRFTISRDNATNTVYLEMNSLKPEDTAVYFCNKLYRRYPVPREYDYWGQGTQVTVSS,polyreactivity (PSR sort gate),high polyreactivity
QVQLVESGGGLVQAGGSLRLSCAASGSTFDGNAMGWYRQAPGKERELVAAISYSGGRTYYADSVKGRFTISRDNAKNTVYLQMNSLKPEDTAVYYCATVRPKYSASSYLAYSIFRYGYWGQGTQVTVSS,polyreactivity (PSR sort gate),high polyreactivity
QVQLVESGGGLVQAGGSLRLSCAASGFILAYYAMGWYRQAPGKERELVAAISIGSSTDYADSVKGRFTISRDNAKNTVYLQMNSLKPEDTAVYYCAATYVYWTWGYDYWGQGTQVTVSS,polyreactivity (PSR sort gate),low polyreactivity
QVQLVESGGGLVQAGGSLRLSCAASGSIFRYYTMGWYRQEPGKERELVAAISCNGGRTYYADSVKGRFTISCDNAKNTVYLQMNSLKPEDTAVYYCNAVYILTETWYDYWGQGTQVTVSS,polyreactivity (PSR sort gate),high polyreactivity
QVQLVESGGGLVQAGGSLRLSCAASGIIFYHYAMGWYRQPPGKERELVAAITWSGGTTYYADSVKGRFTISRDNAKNTVYLQMNSMKPEDTAVYYCNADYVPYGFDYWGQGTQVTVSS,polyreactivity (PSR sort gate),low polyreactivity
QVQLVESGGGLVQAGGSLRLSCAASGFTFYKYAMGCYRQPPGKERELVAAITGRGGSTYYADSVKGRFTISRDNAKNTVYLQMNILKPEDTAVYYCAARTPSYEMDYWGQGTQVTVSS,polyreactivity (PSR sort gate),high polyreactivity
QVQLVESGGGLVQAGGSLRLSCAASGITFWRYAMGWYRQAPGKERELVAAINSGGGTKFADSVKGRFTISRDNAKNTVYLQMNSLKPEDTAVYYCAAKYVFTLHRYDYWGQGTQVTVSS,polyreactivity (PSR sort gate),high polyreactivity
QVKLVESGGGLVQAGGSLLLSCAASVLTFYRYVIVCYRQEPGKERELVAAITKSGGSTYYADSVKGRFTISRDNAKNTVYLQMNSLKPEDTAVYYCAVRSYWRGDYWGQGTQVTVSS,polyreactivity (PSR sort gate),high polyreactivity
QVPLVESGGGLVQAGGSLRLSCAASGLTFDIYTMGWYRQAPGKERELVARISTSGSRTYYADSVKGRFTISRDYAKNTVYLQMNSLIPEDTAVYYCNKDGWIRRRRGSDYWGQGTQVTVSS,polyreactivity (PSR sort gate),high polyreactivity
QVHLVESGGGLVQAGGSLRLSCAASRGIFHYYAMGWYRQAPGNERELVAAISWNTGSTYYADSVKGRFTISRDNAKNTVYLQMNSLKPEDTAVYYCAASYRSPWMRYDYWGQGTQVTVSS,polyreactivity (PSR sort gate),high polyreactivity
QVQLVESGGGLVQAGGSLRLSCAASGITIYGYAMGWYRQAPGKERELVAAITRSGGRTYYADSVKGRFTISRDNAKNTVYLQMNSLKPEDTAVYYCAKDMNDETAPYYYWGQGTQVTVSS,polyreactivity (PSR sort gate),high polyreactivity
QVQLVESGGGLVQAGGSLRLSCAASGSTFKIYAMGWYRPAPGKERELVAAITRGASTYADSVKGRFTISRDNAKNTVYLQMNSLKPEDTAVYYCAAYRRPSRSGDKPIGFDYWGQGTQVTVSS,polyreactivity (PSR sort gate),high polyreactivity
QVQLVESGGCLVQAGGSLRLSCAASGSTFGGNAMGWYRQAPGKERELVAAISTSGGSTYYADSVKGRFTISRDNAKNTVYLQMNSLKPEDTAVYYCNAVRIGGAPRSRFYDWGQCTQVTVSS,polyreactivity (PSR sort gate),high polyreactivity
QVQLVESGGGLVQAGGSLRLSCAASGSTSPIYAMGWYRQAPGKERELVAAINGVGSTNYADSVKGRFTISRDNAKNTVYLQMNSLKPEDTAVYYCNTRYSPGYQGTEVDYWGKGTQVTVSS,polyreactivity (PSR sort gate),low polyreactivity
QVQLVESGGGLVQAGGSLRLSCAASGIIFGTYAMGWYRQAPGKERELVASISSRGGSTYYADSVKGRFTISRDNAKNTVYLQMNSLKPEDTAVYYCAKRPSYAYSRYRKGHDYWGQGTQVSVSS,polyreactivity (PSR sort gate),high polyreactivity
QVQLVESGGGLVQAGGSLRLSCAGSGRTSLAYAMGWYRQAPGKERELVAGITSGGNTNYADSVKGRFTISCDNAKNTVYLQMNSLKPEDTAVYYCNKKKRWQWYSESVLDYLGFYSWGQGTQVTVSS,polyreactivity (PSR sort gate),low polyreactivity
QVQLVESGGGLVQAGGSLRLSCAASGSIRSYAMGWYRQSPGKERELVAAITRSGGSTYYADSVKGRFTISRDNAKNSVYLQMNSLKPEDTAVYYCAAEVRGKSRSTRVSYRYDYWGQGTQVTVSS,polyreactivity (PSR sort gate),high polyreactivity
